Assay results: the supplement of paper PMC11908140

B1: library; numbered along this chain (parent)
chain: MRKPRAAVGSGHRKQAASQEGRQKHAKNNSQAKPSACDGLARQPEEVVLQASVSSYHLFRDVAEVTAFRGSLLSWYDQEKRDLPWRRRAEDEMDLDRRAYAVWVSEVMLQQTQVATVINYYTGWMQKWPTLQDLASASLEEVNQLWAGLGYYSRGRRLQEGARKVVEELGGHMPRTAETLQQLLPGVGRYTAGAIASIAFGQATGVVDGNVARVLCRVRAIGADPSSTLVSQQLWGLAQQLVDPARPGDFNQAAMELGATVCTPQRPLCSQCPVESLCRARQRVEQEQLLASGSLSGSPDVEECAPNTGQCHLCLPPSEPWDQTLGVVNFPRKASRKPPREESSATCVLEQPGALGAQILLVQRPNSGLLAGLWEFPSVTWEPSEQLQRKALLQELQRWAGPLPATHLRHLGEVVHTFSHIKLTYQVYGLALEGQTPVTTVPPGARWLTQEEFHTAAVSTAMKKVFRVYQGQQPGTCMGSKRSQVSSPCSRKKPRMGQQVLDNFFRSHISTDAHSLNSAAQ

Variants of: B1
Assay: 8OG:A repair function score (normalized; synonymous = 0, nonsense = -1) (normalized log-likelihood score); higher = more repair activity (WT-like)
Details: with 8OG:A DNA repair reporter (GFP) in HEK-293 MUTYH KO cells
Procedure, shortened: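 With 10 pg/ml doxycycline, MUTYH knockout HEK-293 cells carrying lentiviral MUTYH cDNA NNN codon-scan libraries were co-transfected with mCherry and an 8OG:A GFP repair reporter. Viable mCherry+ cells were sorted into GFP+ (repair) and GFP− bins at 72 h, three replicates per tile, and tile amplicons were sequenced. Per-tile Rosace fitness scores were then normalized into a repair function score anchored on synonymous and nonsense distributions. Medians were fixed at 0 for synonymous and -1 for nonsense, excluding variants under 300 counts per million at the start.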

8OG:A repair function score of substitutions, site by site:
H416: Y -0.438; F -0.448; T 0.0616; S -0.0543; P -0.576; D -0.403; A -0.0865; R -0.158; Q 0.399; V -0.101; C -0.483; E -0.909; L -0.319; I -0.188; M -0.755; N -0.342; K -0.715; G -0.0614; W -0.209
F418: N -0.355; T -0.165; Y -0.368; K -0.75; C -0.171; S -0.474; R -0.722; V -0.269; Q -0.554; G -0.636; P -0.719; L -0.304; E -0.889; I 0.255; A -0.333; D -1.06; H -0.4; W -0.969; M 0.07
H410: M 0.0995; S -0.169; L -0.3; R 0.0868; P -0.371; V -0.2; Q -0.291; N -0.157; Y 0.174; T -0.322; W -0.367
G412: W -0.986; Y -0.721; I -0.788; A -0.236; S -0.26; L -0.855; F -0.473; P -0.295; C -0.809; T -0.494; D -0.162; M -0.67; R -0.598; V -0.894; K -0.396; Q -0.645; E -0.631; N -0.34; H -0.792
H420: S -0.494; F -0.576; T -0.525; I -0.666; V -0.371; N -0.608; E -0.781; P -0.877; Y -0.672; W -0.434; K -0.792; Q -0.0915; G -0.0793; D -0.651; R -0.393; C -0.465; A -0.146; L -0.527; M -0.23
E413: Y -0.109; C -0.201; R -0.0915; A -0.0523; M -0.375; S 0.169; T 0.369; F 0.0141; V -0.059; G -0.112; Q -0.0587; H 0.00964; K 0.103; N -0.0589; W -0.379; L -0.056; D -0.00314; I 0.00451; P -0.386
S419: I -0.542; T -0.177; V -0.259; H -0.28; G -0.522; A -0.188; Q -0.333; N -0.269; F -0.753; D -0.221; P -0.574; L -0.749; W -0.75; C -0.434; K 0.0315; R -0.334; E -0.583; Y -0.503; M -0.561
T424: L -0.165; W -0.204; S -0.192; P -0.685; C -0.0623; R -0.0759; I 0.0389; A -0.121; Q -0.355; N -0.156; Y -0.181; V -0.09; K -0.203; E -0.45; D -0.256; H -0.235; F -0.0268; G -0.293; M -0.383
V427: T -0.409; R -1.04; C -0.195; E -1.24; N -1.15; L -0.345; M -0.599; G -1.03; I -0.18; A -0.455; W -0.831; H -1.08; S -0.925; K -1.06; Q -1.16; Y -1.2; D -1.2; P -1.13; F -1.1
V415: L 0.0523; S 0.0289; P -0.0885; T -0.106; C 0.022; H -0.115; M 0.0821; Q 0.189; Y -0.275; E -0.106; N -0.11; A 0.0175; R 0.157; K -0.327; I 0.053; F -0.391; W 0.0208; D -0.364; G -0.172
L423: G 0.0807; F -0.0863; A 0.0643; V -0.132; C 0.0721; T -0.513; N -0.091; R -0.232; M 0.142; I -0.059; H 0.0797; Q 0.416; D -0.261; P -0.683; E -0.289; S 0.137; K -0.269; W -0.0181; Y -0.0686
Y425: P -0.934; E -0.544; C -0.509; N -0.608; S -0.31; F -0.11; L -0.213; H -0.0609; Q -0.626; I 0.315; T -0.255; R -0.476; W -0.328; M 0.236; D -0.805; K -0.0804; V 0.00816; A -0.637; G -0.907
K422: A -0.0566; D -0.458; Y -0.355; W -0.317; S -0.227; V -0.231; T -0.156; M -0.42; G -0.491; I -0.297; E -0.492; F -0.584; P -1.09; N -0.21; H -0.22; Q 0.195; L -0.353; R 0.334; C -0.221
I421: Q -0.51; C -0.3; N -0.83; D -0.852; P -1.15; L 0.0792; K -0.173; R -0.207; F -0.142; E -0.385; M -0.139; G -0.609; W -0.59; V -0.0973; H -0.201; T -0.299; S -0.59; A -0.443; Y -0.435
T417: N 0.149; M 0.321; K 0.36; I -0.142; W -0.253; S 0.0785; G -0.208; P -0.506; Q -0.0624; L -0.0186; H -0.254; D -0.0817; E 0.0158; Y 0.325; A 0.198; R 0.199; V 0.0389; F 0.0432; C -0.188
Q426: I -0.057; T -0.247; R -0.143; H -0.0882; P -0.928; D -0.46; V -0.068; G -0.158; S -0.0807; C -0.0839; N -0.05; M -0.183; W -0.215; F -0.17; Y 0.0116; E -0.28; L -0.0573; A -0.0345; K 0.106
V414: S -0.294; I -0.137; E -0.742; G -0.649; W -0.504; Q -0.321; F -0.187; A -0.157; D -0.769; L -0.0973; K -0.609; H -0.326; R -0.625; Y -0.314; M -0.321; P -1.01; C 0.129; T -0.0984; N -0.679
L411: T -0.469; V 0.0699; P -0.665; I 0.148; H 0.0947; N -0.503; C 0.0617; D -0.751; R -0.222; Y 0.251; G -0.531; K -0.505; Q -0.494; E -0.473; W -0.28; M -0.193; A -0.00099; S -0.29; F -0.151
